Results as given in PMC9969694, “YULINK regulates vascular formation in zebrafish and HUVECs” (Biological Research, 2023).

T1: AcGFP-YULINK (full-length) (human, UniProt Q9NXC5-1 1-875)
T1 construct: YULINK, full-length, conjugated with AcGFP; also called full-length AcGFP-YULINK; source: HEK-293 T, co-transfected, in live cells
T1 sequence (looked up): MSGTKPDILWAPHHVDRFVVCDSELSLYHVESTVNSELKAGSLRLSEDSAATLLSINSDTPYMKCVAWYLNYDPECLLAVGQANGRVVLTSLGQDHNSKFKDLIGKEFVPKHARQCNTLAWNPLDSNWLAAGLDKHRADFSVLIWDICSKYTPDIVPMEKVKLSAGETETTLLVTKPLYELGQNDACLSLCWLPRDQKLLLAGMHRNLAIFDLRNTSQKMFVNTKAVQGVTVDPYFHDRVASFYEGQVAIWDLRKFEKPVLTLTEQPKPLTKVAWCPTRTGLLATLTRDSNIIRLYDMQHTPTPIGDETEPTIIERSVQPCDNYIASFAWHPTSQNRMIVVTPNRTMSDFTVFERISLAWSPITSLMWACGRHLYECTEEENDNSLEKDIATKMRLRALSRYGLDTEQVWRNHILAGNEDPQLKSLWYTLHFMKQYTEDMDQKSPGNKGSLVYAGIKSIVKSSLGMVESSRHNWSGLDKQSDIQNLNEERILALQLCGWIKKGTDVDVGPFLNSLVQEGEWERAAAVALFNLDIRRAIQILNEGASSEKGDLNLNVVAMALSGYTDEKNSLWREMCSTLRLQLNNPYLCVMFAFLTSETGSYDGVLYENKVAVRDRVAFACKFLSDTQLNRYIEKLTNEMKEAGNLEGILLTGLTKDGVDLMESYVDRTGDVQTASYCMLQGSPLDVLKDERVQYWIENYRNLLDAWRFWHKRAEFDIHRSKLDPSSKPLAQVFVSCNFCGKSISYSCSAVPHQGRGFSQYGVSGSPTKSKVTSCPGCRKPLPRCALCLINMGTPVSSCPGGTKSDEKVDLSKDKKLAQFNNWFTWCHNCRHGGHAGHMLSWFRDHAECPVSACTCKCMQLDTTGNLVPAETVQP


Key:
Assay in all cases: FRET or BRET; FLIM-FRET in HEK-293 T cells 48 h after co-transfection; AcGFP donor on YULINK (full-length or truncated), DsRed acceptor on the partner; mean fluorescence lifetime τ of AcGFP and FRET efficiency E; AcGFP-YULINK alone about 2.71 ns
AcGFP-YULINKΔN (human) = target: AcGFP-YULINKΔN (human)
AcGFP-YULINKΔC (human) = target: AcGFP-YULINKΔC (human)
[1] = target: T1, AcGFP-YULINK (full-length); details: partners not purified

Chain of DsRed-TICAM2 (Q86XR7 whole entry): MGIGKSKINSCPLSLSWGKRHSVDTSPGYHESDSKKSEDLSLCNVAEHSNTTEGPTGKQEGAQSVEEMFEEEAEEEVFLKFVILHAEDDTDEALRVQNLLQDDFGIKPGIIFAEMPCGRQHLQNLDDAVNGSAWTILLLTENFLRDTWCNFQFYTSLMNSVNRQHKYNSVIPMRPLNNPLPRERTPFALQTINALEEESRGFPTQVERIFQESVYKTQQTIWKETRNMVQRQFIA

Row | Molecule | FRET efficiency E (AcGFP-YULINKΔN (human)) [%] | mean fluorescence lifetime τ of the donor (AcGFP-YULINKΔN (human)) [ns] | FRET efficiency E (AcGFP-YULINKΔC (human)) [%] | mean fluorescence lifetime τ of the donor (AcGFP-YULINKΔC (human)) [ns] | FRET efficiency E [1] [%] | mean fluorescence lifetime τ of the donor [1] [ns]
1 | DsRed-TICAM2 (from UniProt Q86XR7 1-235) (natural protein) | 19.6 | 2.18 | 17.7 | 2.23 |  | 
2 | DsRed-RAB33B (natural protein, human, UniProt Q9H082 1-229, looked up, RAB33B conjugated with DsRed; source: HEK-293 T, co-transfected, in live cells) MAEEMESSLEASFSSSGAVSGASGFLPPARSRIFKIIVIGDSNVGKTCLTYRFCAGRFPDRTEATIGVDFRERAVEIDGERIKIQLWDTAGQERFRKSMVQHYYRNVHAVVFVYDMTNMASFHSLPSWIEECKQHLLANDIPRILVGNKCDLRSAIQVPTDLAQKFADTHSMPLFETSAKNPNDNDHVEAIFMTLAHKLKSHKPLMLSQPPDNGIILKPEPKPAMTCWC |  |  |  |  | 8.1 | 2.49

The next lines start with the values.

Row | FRET efficiency E (AcGFP-YULINKΔN (human)) [%] | mean fluorescence lifetime τ of the donor (AcGFP-YULINKΔN (human)) [ns] | FRET efficiency E (AcGFP-YULINKΔC (human)) [%] | mean fluorescence lifetime τ of the donor (AcGFP-YULINKΔC (human)) [ns] | FRET efficiency E [1] [%] | mean fluorescence lifetime τ of the donor [1] [ns] | Molecule
3 | 36.5 | 1.72 |  |  |  |  | DsRed-RAB33B (from UniProt Q9H082 1-229) (natural protein)
4 |  |  |  |  | 11.4 | 2.4 | DsRed-EPS15 (natural protein, human, UniProt P42566 1-896, looked up, EPS15 conjugated with DsRed; also called DsRed-ESP15; source: HEK-293 T, co-transfected, in live cells) MAAAAQLSLTQLSSGNPVYEKYYRQVDTGNTGRVLASDAAAFLKKSGLPDLILGKIWDLADTDGKGILNKQEFFVALRLVACAQNGLEVSLSSLNLAVPPPRFHDTSSPLLISGTSAAELPWAVKPEDKAKYDAIFDSLSPVNGFLSGDKVKPVLLNSKLPVDILGRVWELSDIDHDGMLDRDEFAVAMFLVYCALEKEPVPMSLPPALVPPSKRKTWVVSPAEKAKYDEIFLKTDKDMDGFVSGLEVREIFLKTGLPSTLLAHIWSLCDTKDCGKLSKDQFALAFHLISQKLIKGIDPPHVLTPEMIPPSDRASLQKNIIGSSPVADFSAIKELDTLNNEIVDLQREKNNVEQDLKEKEDTIKQRTSEVQDLQDEVQRENTNLQKLQAQKQQVQELLDELDEQKAQLEEQLKEVRKKCAEEAQLISSLKAELTSQESQISTYEEELAKAREELSRLQQETAELEESVESGKAQLEPLQQHLQDSQQEISSMQMKLMEMKDLENHNSQLNWCSSPHSILVNGATDYCSLSTSSSETANLNEHVEGQSNLESEPIHQESPARSSPELLPSGVTDENEVTTAVTEKVCSELDNNRHSKEEDPFNVDSSSLTGPVADTNLDFFQSDPFVGSDPFKDDPFGKIDPFGGDPFKGSDPFASDCFFRQSTDPFATSSTDPFSAANNSSITSVETLKHNDPFAPGGTVVAASDSATDPFASVFGNESFGGGFADFSTLSKVNNEDPFRSATSSSVSNVVITKNVFEETSVKSEDEPPALPPKIGTPTRPCPLPPGKRSINKLDSPDPFKLNDPFQPFPGNDSPKEKDPEIFCDPFTSATTTTNKEADPSNFANFSAYPSEEDMIEWAKRESEREEEQRLARLNQQEQEDLELAIALSKSEISEA
